Results on two substances are retold here after doi:10.1101/2020.12.02.408153.

What is called IC50 is the concentration needed to halve the response being measured. A high value points to a need for much substance. As usually defined, the Kd is the concentration at which binding is half-saturated. A lower Kd goes with a tighter complex.

Holding throughout (test): SPR
Experiment [1] concerns the target SARS-CoV-2 extended S1 subunit (SARS-CoV-2) (UniProt P0DTC2).
Experiment [2] concerns the target SARS-CoV-2 spike glycoprotein ectodomain with double Strep II tag (SARS-CoV-2 | bacteriophage T4) (UniProt P0DTC2).
Experiment [3] deals with SARS-CoV-2 spike glycoprotein ectodomain with poly-histidine tag (SARS-CoV-2 | bacteriophage T4) (UniProt P0DTC2).

human angiotensin converting enzyme 2, sequence (Q9BYF1 20-611): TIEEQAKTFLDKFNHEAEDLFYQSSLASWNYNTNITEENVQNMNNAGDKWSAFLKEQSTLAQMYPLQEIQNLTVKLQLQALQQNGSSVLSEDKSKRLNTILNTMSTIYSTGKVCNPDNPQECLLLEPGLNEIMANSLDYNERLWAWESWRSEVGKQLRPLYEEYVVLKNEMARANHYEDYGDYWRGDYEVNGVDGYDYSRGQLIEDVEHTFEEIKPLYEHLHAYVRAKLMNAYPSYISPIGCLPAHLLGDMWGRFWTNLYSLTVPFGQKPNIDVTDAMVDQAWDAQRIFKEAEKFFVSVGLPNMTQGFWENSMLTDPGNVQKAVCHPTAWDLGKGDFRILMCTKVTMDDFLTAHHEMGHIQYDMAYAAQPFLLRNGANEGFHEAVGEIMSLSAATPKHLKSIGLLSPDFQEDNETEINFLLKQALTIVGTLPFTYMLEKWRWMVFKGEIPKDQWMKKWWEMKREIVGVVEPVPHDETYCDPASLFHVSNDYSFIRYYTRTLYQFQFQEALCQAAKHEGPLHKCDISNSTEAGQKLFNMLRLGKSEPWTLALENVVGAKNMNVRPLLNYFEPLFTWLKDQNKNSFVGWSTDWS

As to LL-37 (peptide), the IC50 in experiment [1] turned out to be 170 nM; in experiment [2], 740 nM. The Kd turned out to be 200 nM in experiment [1], 410 nM in experiment [2] and 420 nM in experiment [3].

On to “human angiotensin converting enzyme 2 (from UniProt Q9BYF1-1 20-611) (receptor)”, for which the results for the Kd in experiment [1], in experiment [2] and in experiment [3] were 610 nM, 370 nM and 370 nM, respectively.
